This is an account of results in patent US20170349646A1 (PANASONIC INTELLECTUAL PROPERTY MANAGEMENT, published 2017).

Assay [1] deals with recombinant nucleoprotein derived from influenza virus subtype A H1N1 (Sino Biological, 11675-VO8H) (influenza virus subtype A H1N1).
Assay [2] deals with recombinant nucleoprotein (NP) protein derived from influenza virus H1N1 to which a Flag tag was fus (influenza virus H1N1).
Sequence of recombinant nucleoprotein (NP) protein derived from influenza virus H1N1 to which a Flag tag was fus (influenza virus H1N1) (P03466 whole entry): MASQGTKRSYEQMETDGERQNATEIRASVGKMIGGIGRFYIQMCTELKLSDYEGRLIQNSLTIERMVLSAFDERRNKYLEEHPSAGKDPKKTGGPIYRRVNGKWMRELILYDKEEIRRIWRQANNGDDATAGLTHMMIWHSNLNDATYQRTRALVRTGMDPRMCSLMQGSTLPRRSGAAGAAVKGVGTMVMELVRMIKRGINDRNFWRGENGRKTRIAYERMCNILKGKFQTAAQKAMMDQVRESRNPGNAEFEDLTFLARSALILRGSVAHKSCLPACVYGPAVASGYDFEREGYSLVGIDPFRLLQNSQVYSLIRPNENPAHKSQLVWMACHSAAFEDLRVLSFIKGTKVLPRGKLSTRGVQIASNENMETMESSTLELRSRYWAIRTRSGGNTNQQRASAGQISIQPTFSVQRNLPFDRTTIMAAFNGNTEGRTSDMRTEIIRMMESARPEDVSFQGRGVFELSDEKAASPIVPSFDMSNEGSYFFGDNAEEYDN

Sequence of recombinant nucleoprotein derived from influenza virus subtype A H1N1 (Sino Biological, 11675-VO8H) (influenza virus subtype A H1N1) (P03466 whole entry): as above

B1: VHH antibody consisting of the amino acid sequence represented by SEQ ID NO: 08 (VHH)
VHH: EVQLVESGGGLVQAGDSLRLSCAASGRTFINLDMGWFRQPPGKEREYVAAITRNGAITSYADSAKGRFTISRDNAKNTVSLEMNSLKPEDTGVYYCAAYSISNYGSGWYKPDYWGQGAQVTVSS
For the molecule B1, in assay [1], the concentration giving a half-maximal response (EC50 (read off the curve)) was roughly 8 ng/mL. The Kd in assay [2] is 0.224 nM.
